Test results from article PMC3737334 (RNA Biology, 2013).

T1: Cas5 (Cas5/Cas7 core complex);Cas7 (Cas5/Cas7 core complex) (Sulfolobus solfataricus P2?;Sulfolobus …, UniProt Q97Y92;Q97Y91 1-240;1-321, |)
T1 sequence 1: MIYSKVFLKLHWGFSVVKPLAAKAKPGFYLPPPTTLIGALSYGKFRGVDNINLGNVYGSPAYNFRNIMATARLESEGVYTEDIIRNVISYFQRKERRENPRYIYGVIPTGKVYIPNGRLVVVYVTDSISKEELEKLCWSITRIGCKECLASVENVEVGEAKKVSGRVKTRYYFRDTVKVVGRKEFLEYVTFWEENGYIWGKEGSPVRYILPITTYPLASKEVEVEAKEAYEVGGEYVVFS
T1 sequence 2: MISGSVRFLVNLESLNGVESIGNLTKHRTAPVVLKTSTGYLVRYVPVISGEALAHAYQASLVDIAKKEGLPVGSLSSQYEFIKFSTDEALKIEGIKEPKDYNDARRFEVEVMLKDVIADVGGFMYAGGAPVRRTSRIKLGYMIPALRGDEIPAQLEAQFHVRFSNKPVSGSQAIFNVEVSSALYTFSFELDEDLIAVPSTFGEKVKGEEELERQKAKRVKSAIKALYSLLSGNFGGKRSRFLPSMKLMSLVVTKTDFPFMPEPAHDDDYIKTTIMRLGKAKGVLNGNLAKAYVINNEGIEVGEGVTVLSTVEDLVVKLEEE

T2: Csa5 (UniProt Q97Y90 1-150)
T2 sequence: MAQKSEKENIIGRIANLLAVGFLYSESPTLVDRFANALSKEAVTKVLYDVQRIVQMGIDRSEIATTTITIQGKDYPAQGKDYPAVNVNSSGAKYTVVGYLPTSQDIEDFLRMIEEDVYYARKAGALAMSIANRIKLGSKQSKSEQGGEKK


What was measured:
[1] = molecular target: T1, Cas5 (Cas5/Cas7 core complex);Cas7 …; test: fluorescence anisotropy
Csa5 = molecular target: T2, Csa5; test: fluorescence anisotropy
crystal structure = molecular target: the molecule itself; test: crystal structure
SEC = molecular target: the molecule itself; test: SEC

| Binder | binding result (Csa5) | also measured |
| --- | --- | --- |
| crRNA (spacer 26, CRISPR locus A) (ssRNA) RNA: AUUGAAAGACCAUACCCAACUUCUAACAACGUCGUUCUUAACAACGGAUUAAUCCCAAAA | no binding | Kd [1]: 1380 ± 140 nM |
| crRNA/protospacer heteroduplex (DNA:RNA) RNA: AUUGAAAGACCAUACCCAACUUCUAACAACGUCGUUCUUAACAACGGAUUAAUCCCAAAA DNA: GATCCTCTCCACGTTGTTAAGAACGACGTTGTTAGAAGTTGGGTATGGTTGGCTG | no binding |  |
| CCTCGAGGGATCCGTCCTAGCAAGCCGCTGCTACCGGAAGCTTCTGGACC (ssDNA) [non-target ssDNA] | no binding |  |
| Sso1398 (Csa5 paralog), selenomethionyl derivative (natural protein, S. solfataricus, selenomethionine in place of methionine) MEASEPVAETISKRFWTLIKMLRFYVVLRRFGYIDPLIYSIDPKQIKDVLSEALREFVSYTSSSSSRSIVIYDDPKNPVTAQAPCLVVAKRDEIPQNFPSIYRYTIYKIDKSSEYCISPLVVNDKYATLITPNESVIKEFFDKLDSNIQYARVLASLAVGGE |  | binding result (crystal structure): binds |
| Sso1398 wild type (Csa5 paralog) (natural protein, S. solfataricus) MEASEPVAETISKRFWTLIKMLRFYVVLRRFGYIDPLIYSIDPKQIKDVLSEALREFVSYTSSSSSRSIVIYDDPKNPVTAQAPCLVVAKRDEIPQNFPSIYRYTIYKIDKSSEYCISPLVVNDKYATLITPNESVIKEFFDKLDSNIQYARVLASLAVGGE |  | binding result (SEC): binds |
